In patent US20110189284A1, “Peptide Fibres” (UNIVERSITY OF BRISTOL, priority 2009, published 2011):

Tests used:
[1] = test system: PC12 cells; assay: Alamar Blue cell-proliferation assay; type: cell-based, rat; conditions: cells on collagen; peptide 0.5-2.5 mM total; 72 hours
Procedure: PC12 cells were exposed to different concentrations of hSAFAAA-W peptides (from 0.5 mM to 2.5 mM). Results are expressed as percentage of fluorescence from cells incubated with hSAFAAA-W versus no-peptide controls (100%). Mean+/−s.d. mean for n=3 experiments. […] Staurosporine was used to establish definite cell death.
Rat adrenal pheochromocytoma (PC12) cells and the subclone Neuroscreen-1 (NS-1) cells (ThermoFisher Scientific Cellomics) were used. Cells were maintained at 37° C., 5% CO2 in cell-culture medium comprising: Dulbecco's Modified Eagle Media (DMEM, Invitrogen) supplemented with 10% (v/v) horse serum (Sigma), 5% (v/v), fetal bovine serum (Sigma), 1% (v/v) penicillin/streptomycin solution (Sigma), and 2 mM L-glutamine (Invitrogen). […] The fluorescence (excitation, 560 nm; emission, 590 nm) of 100 μl samples was measured. The ratio of the fluorescence intensities to that for a no-peptide control wells was taken as a measure of cell proliferation. […] Cell morphology was followed up using Leica Microsystem Wetzlar GmbH (090-135.001) and images recorded using Canon PowerShot S70 7.1 megapixels. […]

[2] = Particle-tracking microrheology (PTM) of gel strength versus temperature; type: physicochemical; conditions: as a function of temperature
Procedure: Gel strength was probed using particle-tracking microrheology (PTM), in order to detect any difference between the behaviour of the material at the bulk and micro scales. PTM is a non-invasive technique for measuring local viscoelasticity in complex fluids (Cicuta & Donald, 2007). PTM directly observes the motion of embedded probe particles via optical microscopy. The mean square displacement (MSD) of the particles is calculated and related to the viscoelastic modulus of the sample using a Generalised Stokes-Einstein Relation (Mason, 2000; Hasnain & Donald, 2006). […] The spatial information for individual probe particles can be used to quantify the degree of heterogeneity in the system (Houghton et al., 2008).
Experiments were carried out using a Zeiss LSM 510 confocal microscope operated in bright-field mode with a 50× objective. […] Videos were captured in uncompressed avi format at 640×480 resolution and analysed using custom-written Matlab scripts. Viscoelastic moduli were calculated by taking Laplace Transform of the MSD and using GSER. […]
To confirm and quantify the gel strengths, the storage (G′) and loss (G″) moduli were recorded as a function of temperature using both microrheology (FIG. 3) and bulk oscillatory rheology, FIG. 4a. […]

[3] = target: T1, hSAFAAA p2; assay: complementary peptides mixed on ice at 1 mM each; vial inversion gel test
T1 construct: Second peptide of the hSAFAAA pair; also called peptide b)
T1 peptide: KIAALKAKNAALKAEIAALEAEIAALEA
Procedure: (§1) Complementary hSAF peptides were mixed on ice, and either allowed to assemble at this temperature for 30 minutes, or removed after 5 minutes and incubated for 25 minutes at 20° C. After these times, to test for gel formation, sample vials were inverted and incubated for a further 30 minutes without changing the temperature (FIG. 2). Through this simple test, hSAFAAA and hSAFQQQ both formed self-supporting gels. hSAFQQQ formed a gel at low temperature, which melted on warming; whereas, the hSAFAAA appeared to form a weak gel at low temperature that strengthened on warming.

[4] = target: T2, hSAFAAQ p2; assay: summary of microscopy of the mixed peptides
T2 construct: Second peptide of the control pair hSAFAAQ
T2 peptide: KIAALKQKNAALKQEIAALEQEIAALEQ

[5] = target: T3, hSAFQQQ p2; assay: complementary peptides mixed on ice at 1 mM each; vial inversion gel test
T3 construct: Second peptide of the hSAFQQQ pair; also called peptide f)
T3 peptide: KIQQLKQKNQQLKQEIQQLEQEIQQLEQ
Procedure: as §1

CN[C@@H]1C[C@H]2O[C@@](C)([C@@H]1OC)n1c3ccccc3c3c4c(c5c6ccccc6n2c5c31)C(=O)NC4 [staurosporine]
cell proliferation / death versus no-peptide controls [1]: died

KIAALKAKNAALKAEIAALEAEIAALEA [hSAFAAA p2]
gel state by PTM [2]: formed a weak gel detectable by PTM

B1: hSAFAAA p1 (peptide)
peptide: KIAALKAKIAALKAEIAALEAENAALEA
notes: First peptide of the hSAFAAA pair; many copies assemble with p2 into a staggered heterodimer coiled-coil fibril; also called peptide a)
binding result [3]: binds

KIAALKQKIAALKQEIAALEQENAALEQ [hSAFAAQ p1]
binding result [4]: binds

B2: hSAFQQQ p1 (peptide)
peptide: KIQQLKQKIQQLKQEIQQLEQENQQLEQ
notes: First peptide of the hSAFQQQ pair; also called peptide e)
binding result [5]: binds
